In data set [1] the target is T1, HisFlag-Mlh1 (MutLγ subunit);Mlh3 (MutLγ subunit) (Saccharomyces cerevisiae (S288c, …, UniProt P38920;Q12083 1-769;1-715, |)).
T1 sequence 1: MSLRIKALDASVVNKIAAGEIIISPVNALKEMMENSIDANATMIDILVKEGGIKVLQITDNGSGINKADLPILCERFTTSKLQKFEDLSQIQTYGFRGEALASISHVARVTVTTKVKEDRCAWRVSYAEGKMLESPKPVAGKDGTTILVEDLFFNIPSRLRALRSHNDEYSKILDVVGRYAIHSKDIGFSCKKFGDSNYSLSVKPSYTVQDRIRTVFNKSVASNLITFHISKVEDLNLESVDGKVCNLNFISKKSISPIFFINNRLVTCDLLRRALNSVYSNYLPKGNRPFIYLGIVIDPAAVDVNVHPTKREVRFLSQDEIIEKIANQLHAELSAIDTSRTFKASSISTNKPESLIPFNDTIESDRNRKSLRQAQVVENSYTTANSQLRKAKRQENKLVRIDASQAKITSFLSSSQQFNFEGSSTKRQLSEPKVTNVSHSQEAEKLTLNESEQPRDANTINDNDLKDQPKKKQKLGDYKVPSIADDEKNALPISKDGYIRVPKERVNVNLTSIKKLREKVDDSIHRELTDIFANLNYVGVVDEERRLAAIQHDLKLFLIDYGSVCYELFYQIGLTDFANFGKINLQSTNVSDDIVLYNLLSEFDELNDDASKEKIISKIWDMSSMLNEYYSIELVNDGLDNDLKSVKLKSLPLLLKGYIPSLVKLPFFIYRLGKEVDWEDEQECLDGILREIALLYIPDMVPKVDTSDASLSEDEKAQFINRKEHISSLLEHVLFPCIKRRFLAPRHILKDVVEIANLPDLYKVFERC
T1 sequence 2: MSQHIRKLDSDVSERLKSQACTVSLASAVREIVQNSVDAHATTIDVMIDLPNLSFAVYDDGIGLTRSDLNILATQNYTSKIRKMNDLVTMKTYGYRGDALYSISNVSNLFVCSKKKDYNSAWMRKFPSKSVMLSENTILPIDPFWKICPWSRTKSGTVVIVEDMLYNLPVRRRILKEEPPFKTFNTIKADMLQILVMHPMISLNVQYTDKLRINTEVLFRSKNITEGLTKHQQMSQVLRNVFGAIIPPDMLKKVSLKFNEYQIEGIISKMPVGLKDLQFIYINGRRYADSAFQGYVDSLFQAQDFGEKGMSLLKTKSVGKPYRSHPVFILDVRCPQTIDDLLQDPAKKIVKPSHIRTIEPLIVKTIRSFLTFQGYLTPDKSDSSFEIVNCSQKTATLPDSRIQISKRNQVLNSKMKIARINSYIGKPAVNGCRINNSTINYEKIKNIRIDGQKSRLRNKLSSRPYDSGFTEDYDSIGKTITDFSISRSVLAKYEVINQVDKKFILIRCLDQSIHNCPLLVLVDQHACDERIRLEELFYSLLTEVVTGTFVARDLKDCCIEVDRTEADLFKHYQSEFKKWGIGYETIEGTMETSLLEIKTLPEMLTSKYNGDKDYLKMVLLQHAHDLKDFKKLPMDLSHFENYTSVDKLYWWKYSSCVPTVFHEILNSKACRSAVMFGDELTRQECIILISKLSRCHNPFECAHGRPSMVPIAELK
The data set is described as follows: FeBABE footprinting.

The target in data set [2] is T2, Mlh1 (untagged);HisFlag-Mlh3 (Saccharomyces cerevisiae (S288c, …, UniProt P38920;Q12083 1-769;1-715, |)).
T2 sequence 1: T1 sequence 1
T2 sequence 2: T1 sequence 2
The data set can be described thus: FeBABE footprinting.

In data set [3] the target is T1, HisFlag-Mlh1 (MutLγ subunit);Mlh3 …. The data set can be described thus: pull-down.
In data set [4] the target is T2, Mlh1 (untagged);HisFlag-Mlh3. The data set can be described thus: FeBABE footprinting. The source holds these as a separate data set.
Data set [5] has as its target T1, HisFlag-Mlh1 (MutLγ subunit);Mlh3 …. The data set can be described thus: FeBABE footprinting. The source holds these as a separate data set.

Read-outs that look alike come from different tables or passages of the source.

The values that follow come from paper doi:10.1101/108647.

B1: HJ+1 FeBABE (cb256/351/369/098) (structured_DNA)
DNA 1: CTAGTATAGAGCCGGCGCGCCATGTCTAGATAGCGTTAGGTCTGCCGAATAGTACTACTCGGATCCCGAGCGAACCACGC
DNA 2: GCGTGGTTCGCTCGGGATCCGAGTAGTACTATTCGGCAGAGGATTCGAATAGGCCTAATCGAATTCCGCCATCGATGCAC
DNA 3: GTGCATCGATGGCGGAATTCGATTAGGCCTATTCGAATCCAGACGCGAGTAGATCTTCACGGTACCCGCGGTTACCCGTG
DNA 4: CACGGGTAACCGCGGGTACCGTGAAGATCTACTCGCGTCTCCTAACGCTATCTAGACATGGCGCGCCGGCTCTATACTAG
modifications: phosphorothioate-FeBABE on strands 2 and 3, segment 1 (nearest the center); 3'-biotin on strand 1
For the molecule B1, the binding result in data set [1] and in data set [2] was “binds” each time.

B2: dsDNA80-biotin (cb256/cb100) (dsDNA)
DNA 1: B1 DNA 1
DNA 2: GCGTGGTTCGCTCGGGATCCGAGTAGTACTATTCGGCAGACCTAACGCTATCTAGACATGGCGCGCCGGCTCTATACTAG
modifications: 3'-biotin on strand 1
With B2, in data set [3], the binding result is recorded as “no binding”.

B3: HJ80-biotin (cb256/096/097/098) (structured_DNA)
DNA 1: B1 DNA 1
DNA 2: B1 DNA 2
DNA 3: B1 DNA 3
DNA 4: B1 DNA 4
modifications: 3'-biotin on strand 1
Regarding B3, in data set [3], the binding result is reported as “binds”.

B4: ssDNA+ FeBABE (cb361) (ssDNA)
DNA: TTTTTTTTTTTTTTTTTTTTTTTTTTTTTTTTTTTTTTTTTTTTTTTTTTTTTTTTTTTTTTTTTTTTTTTTTTTTTTTT
modifications: phosphorothioate-FeBABE after every 8 nt; 3'-biotin
Consider B4, for which the binding result in data set [4] and in data set [5] was “binds” throughout.

B5: ssDNA80-biotin (cb316) (ssDNA)
DNA: B4 DNA
modifications: 3'-biotin
As to B5, in data set [3], the binding result is “binds”.
